From the RNAGym collection of RNA variant scans (doi:10.7554/elife.80360)

B1: CPEB3 Ribozyme (parent)
chain: GGGGGCCACAGCAGAAGCGUUCACGUCGCGGCCCCUGUCAGAUUCUGGUGAAUCUGCGAAUUCUGCUGU

Variants of: B1
Assay: self-cleavage, relative activity (ratio to wild type); higher = more cleavage; co-transcriptional

Variant | self-cleavage
GGGGGCCACAGCAGAAGCGUUCAAGUCGCGGGCCCUGUCAGAUUCUGGUGAAUCUGCGAAUUCUGCUGU [C24A C32G] | 0.234
GGGGGCCACAGCAGAAGCGUUCAAGUCGCGGCCCCUGUCAGAUUCUGGUGAAUCUGCGCAUUCUGCUGU [C24A A59C] | 0.32
GGGGGCCACAGCAGAAGCGUUCUCGUCGCGGCCCCUGUCAGAUUCUGGUGAAUCUGGGAAUUCUGCUGU [A23U C57G] | 0.358
GGGGGCCACAGCAGAAGCGUUCAAGUCGCGGCCCCUGUCAGAUUCUGGUGAAUCUGCGAAUUCUCCUGU [C24A G65C] | 0.245
GGGGGCCACAGCAGAAGCGUUCAAGUCGCGGCCCCUGUCAGAUUCUGGUGAAUCUGCGAAUUCUUCUGU [C24A G65U] | 0.303
GGGGGCCACAGCAGAAGCGUUCAAGUCGCGGCCCCUGUCAGAUUCUGGUGAAUCUGCGAAUUCUACUGU [C24A G65A] | 0.441
GGGGGCCACAGCAGAAGCGUUCUCGUCGCGGCCCCUGUCAGAGUCUGGUGAAUCUGCGAAUUCUGCUGU [A23U U43G] | 0.884
GGGGGCCACAGCAGAAGCGUUCAAGCCGCGGCCCCUGUCAGAUUCUGGUGAAUCUGCGAAUUCUGCUGU [C24A U26C] | 0.507
GGGGGCCACAGCAGAAGCGUUCUCGUCGCGGCCCCUGUCAGAUUCUGGUGAAUCGGCGAAUUCUGCUGU [A23U U55G] | 0.908
GGGGGCCACAGCAGAAGCGUUCUCGUCGCGGCCCCUGUCAGAUUCUGGUGAAUCAGCGAAUUCUGCUGU [A23U U55A] | 0.877
GGGGGCCACAGCAGAAGCGUUCAAGUCGCGGCCCCUGUCAGAUUCUGGUGAAUCUGCGAAUUCUGCCGU [C24A U67C] | 0.713
GGGGGCCACAGCAGAAGCGUUCUCGUCGCGGCCCCUGACAGAUUCUGGUGAAUCUGCGAAUUCUGCUGU [A23U U38A] | 0.95
GGGGGCCACAGCAGAAGCGUUCUCGUCGCGGCCCCUGGCAGAUUCUGGUGAAUCUGCGAAUUCUGCUGU [A23U U38G] | 0.206
GGGGGCCACAGCAGAAGCGUUCUCGUCGCGGCCCCUGCCAGAUUCUGGUGAAUCUGCGAAUUCUGCUGU [A23U U38C] | 0.96
GGGGGCCACAGCAGAAGCGUUCUCGUCGCGGCCCCUGUCAGAUUCUGGUGAAUCUGCGAAUGCUGCUGU [A23U U62G] | 0.894
GGGGGCCACAGCAGAAGCGUUCUCGUCGCGGCCCCUGUCAGAUUCUGGUGAAUCUGCGAAUCCUGCUGU [A23U U62C] | 0.885
GGGGGCCACAGCAGAAGCGUUCAAGUCGCGGCCCCUGUCAGAUUCUGGUGAAUCCGCGAAUUCUGCUGU [C24A U55C] | 0.434
GGGGGCCACAGCAGAAGCGUUCAAGUCGCGGCCCCUGUCAGAUUCUGGUGAAUCAGCGAAUUCUGCUGU [C24A U55A] | 0.617
GGGGGCCACAGCAGAAGCGUUCUCGUCGCGGCCCAUGUCAGAUUCUGGUGAAUCUGCGAAUUCUGCUGU [A23U C35A] | 0.395
GGGGGCCACAGCAGAAGCGUUCAAGUUGCGGCCCCUGUCAGAUUCUGGUGAAUCUGCGAAUUCUGCUGU [C24A C27U] | 0.168
GGGGGCCACAGCAGAAGCGUUCUCGUCGCGGCCCCUGUCAGAUUAUGGUGAAUCUGCGAAUUCUGCUGU [A23U C45A] | 0.997
GGGGGCCACAGCAGAAGCGUUCUCGUCGCGGCCCCUGUCAGAUUGUGGUGAAUCUGCGAAUUCUGCUGU [A23U C45G] | 1
GGGGGCCACAGCAGAAGCGUUCUCGUCGCGGCCCCUGUCAGAUUCUGGUGAAUCUGCGCAUUCUGCUGU [A23U A59C] | 0.888
GGGGGCCACAGCAGAAGCGUUCUCGUCGCGGCCCCUGUCAGAUUCUGGUGAAUCUGCGUAUUCUGCUGU [A23U A59U] | 0.969
GGGGGCCACAGCAGAAGCGUUCAAGUCGCGGCCCCUGUCUGAUUCUGGUGAAUCUGCGAAUUCUGCUGU [C24A A40U] | 0.383
GGGGGCCACAGCAGAAGCGUUCAAGUCGCGGCCCCUGUCAGAUUCUGGUGAAUCUGCCAAUUCUGCUGU [C24A G58C] | 0.509

Variant | self-cleavage
GGGGGCCACAGCAGAAGCGUUCUCGUCGCGGCCCCUGUCAGAUUCUGCUGAAUCUGCGAAUUCUGCUGU [A23U G48C] | 1.06
GGGGGCCACAGCAGAAGCGUUCAAGUCGCGGCCCCUGUCAGAUUCUCGUGAAUCUGCGAAUUCUGCUGU [C24A G47C] | 0.765
GGGGGCCACAGCAGAAGCGUUCAAGUCGCGGCCCCUGUCAGAUUCUUGUGAAUCUGCGAAUUCUGCUGU [C24A G47U] | 0.754
GGGGGCCACAGCAGAAGCGUUCUCGUCGCGGACCCUGUCAGAUUCUGGUGAAUCUGCGAAUUCUGCUGU [A23U C32A] | 0.893
GGGGGCCACAGCAGAAGCGUUCUCGUCGCGGCCCCUGUCAGAUUCUGGUGAAUCUGCGAAUUCUUCUGU [A23U G65U] | 0.811
GGGGGCCACAGCAGAAGCGUUCUCGUCACGGCCCCUGUCAGAUUCUGGUGAAUCUGCGAAUUCUGCUGU [A23U G28A] | 0.226
GGGGGCCACAGCAGAAGCGUUCUCGUCGCGGCCCCUCUCAGAUUCUGGUGAAUCUGCGAAUUCUGCUGU [A23U G37C] | 0.149
GGGGGCCACAGCAGAAGCGUUCUCGUCGCGGCCCCUUUCAGAUUCUGGUGAAUCUGCGAAUUCUGCUGU [A23U G37U] | 0.347
GGGGGCCACAGCAGAAGCGUUCUCGUCGCGGCCCCUAUCAGAUUCUGGUGAAUCUGCGAAUUCUGCUGU [A23U G37A] | 0.384
GGGGGCCACAGCAGAAGCGUUCAAGUCGCGGCCUCUGUCAGAUUCUGGUGAAUCUGCGAAUUCUGCUGU [C24A C34U] | 0.803
GGGGGCCACAGCAGAAGCGUUCAAGUCGCGGCCCCUGUCAGAUUCUGGUGAAUAUGCGAAUUCUGCUGU [C24A C54A] | 0.516
GGGGGCCACAGCAGAAGCGUUCAAGUCGCGGCCCCUGUCAGAUUCUGGUGAAUGUGCGAAUUCUGCUGU [C24A C54G] | 0.549
GGGGGCCACAGCAGAAGCGUUCAAGUCGCGGCCCCUGUCAGAUUCUGGUGAAUCUGAGAAUUCUGCUGU [C24A C57A] | 0.188
GGGGGCCACAGCAGAAGCGUUCUCGUCGCGGCCCCUGUCAGAUUCUCGUGAAUCUGCGAAUUCUGCUGU [A23U G47C] | 0.999
GGGGGCCACAGCAGAAGCGUUCAAGUCGCGGCCCCUGUCAGCUUCUGGUGAAUCUGCGAAUUCUGCUGU [C24A A42C] | 0.629
GGGGGCCACAGCAGAAGCGUUCAAGUCGCGGCCCCUGUCAGUUUCUGGUGAAUCUGCGAAUUCUGCUGU [C24A A42U] | 0.66
GGGGGCCACAGCAGAAGCGUUCAAGUCGCGGCCCCCGUCAGAUUCUGGUGAAUCUGCGAAUUCUGCUGU [C24A U36C] | 0.27
GGGGGCCACAGCAGAAGCGUUCUCGUCGCGGCCCCUGUCAGUUUCUGGUGAAUCUGCGAAUUCUGCUGU [A23U A42U] | 1
GGGGGCCACAGCAGAAGCGUUCUCGUCGCGGCCCCUGUCAGGUUCUGGUGAAUCUGCGAAUUCUGCUGU [A23U A42G] | 0.978
GGGGGCCACAGCAGAAGCGUUCAAGUCGCGGCCCCUGUCAGAUUCUGGUGAAUCUGCGAAUUGUGCUGU [C24A C63G] | 0.392
GGGGGCCACAGCAGAAGCGUUCAAGUCGCGACCCCUGUCAGAUUCUGGUGAAUCUGCGAAUUCUGCUGU [C24A G31A] | 0.372
GGGGGCCACAGCAGAAGCGUUCUCGUCGCGGCCCCUGUCAGAUUCUGGUGAAUCUGCGAACUCUGCUGU [A23U U61C] | 0.895
GGGGGCCACAGCAGAAGCGUUCUGGUCGCGGCCCCUGUCAGAUUCUGGUGAAUCUGCGAAUUCUGCUGU [A23U C24G] | 0.556
GGGGGCCACAGCAGAAGCGUUCUUGUCGCGGCCCCUGUCAGAUUCUGGUGAAUCUGCGAAUUCUGCUGU [A23U C24U] | 0.924
GGGGGCCACAGCAGAAGCGUUCAAGUCGCGGCCCCUGUCAGAUUCUGGUUAAUCUGCGAAUUCUGCUGU [C24A G50U] | 0.722
GGGGGCCACAGCAGAAGCGUUCAAGUCGCGGCCCCUGUCAGAUUCUGGUGAAUCUGCGAAGUCUGCUGU [C24A U61G] | 0.347

Variant | self-cleavage
GGGGGCCACAGCAGAAGCGUUCAAGUCGCGGCCCCUGUCAGAUUCUGGUGAAUCUGCGAAAUCUGCUGU [C24A U61A] | 0.452
GGGGGCCACAGCAGAAGCGUUCAAGUCGCGGCCCCUGUCAGAUUCUGGUGAAUCUGCGAAUUCUGCUCU [C24A G68C] | 0.825
GGGGGCCACAGCAGAAGCGUUCAAGUCGCGGCCCCUGUCAGAUUCUGGUGAAUCUGCGAAUGCUGCUGU [C24A U62G] | 0.425
GGGGGCCACAGCAGAAGCGUUCAAGUCGCGGCCCAUGUCAGAUUCUGGUGAAUCUGCGAAUUCUGCUGU [C24A C35A] | 0.185
GGGGGCCACAGCAGAAGCGUUCAAGUCGCGGCCCUUGUCAGAUUCUGGUGAAUCUGCGAAUUCUGCUGU [C24A C35U] | 0.476
GGGGGCCACAGCAGAAGCGUUCUCGUCGCGGCCUCUGUCAGAUUCUGGUGAAUCUGCGAAUUCUGCUGU [A23U C34U] | 1.01
GGGGGCCACAGCAGAAGCGUUCUCGUCGCGGCCCCUGUCAGAUUCUGGUGAAUCUGCCAAUUCUGCUGU [A23U G58C] | 1.02
GGGGGCCACAGCAGAAGCGUUCUCGUCGCGGCCCCUGUCAGAUUCUGGUGAAUCUGCUAAUUCUGCUGU [A23U G58U] | 1.01
GGGGGCCACAGCAGAAGCGUUCUCGUCGCGGCCCCUGUCAGAUUCUGGUGAAUCUGCAAAUUCUGCUGU [A23U G58A] | 1.02
GGGGGCCACAGCAGAAGCGUUCUCGUCGCGACCCCUGUCAGAUUCUGGUGAAUCUGCGAAUUCUGCUGU [A23U G31A] | 0.977
GGGGGCCACAGCAGAAGCGUUCAAGUCGCGGCCCCUGUCAGAUUCUGGUGAAUCUGCGAAUUCCGCUGU [C24A U64C] | 0.471
GGGGGCCACAGCAGAAGCGUUCAAGUCGCGGCCCCUGUCAGAUUCUGGUGAAUCUGCGAAUUCGGCUGU [C24A U64G] | 0.508
GGGGGCCACAGCAGAAGCGUUCUCGUCGCGGCCCCUGUCAGAUUCUGGUGAAUCUGCGAAUUCUGAUGU [A23U C66A] | 0.886
GGGGGCCACAGCAGAAGCGUUCAAGUCGCGGCCCCUGUCAGACUCUGGUGAAUCUGCGAAUUCUGCUGU [C24A U43C] | 0.631
GGGGGCCACAGCAGAAGCGUUCUCGUCGCGGCUCCUGUCAGAUUCUGGUGAAUCUGCGAAUUCUGCUGU [A23U C33U] | 0.998
GGGGGCCACAGCAGAAGCGUUCUCGUCGCGGCCCCUGUCAGAUUCUGGUGAAUCUGCGAAUUCUGCUGG [A23U U69G] | 1.04
GGGGGCCACAGCAGAAGCGUUCAAGUCGCGGCCCCUGUCAGAUUCUGGCGAAUCUGCGAAUUCUGCUGU [C24A U49C] | 0.74
GGGGGCCACAGCAGAAGCGUUCAAGUCGCGGCCCCUGUCAGAUUCUGGGGAAUCUGCGAAUUCUGCUGU [C24A U49G] | 0.686
GGGGGCCACAGCAGAAGCGUUCAAGUCGCGGCCCCUGUCAGAUUCUGGUGACUCUGCGAAUUCUGCUGU [C24A A52C] | 0.634
GGGGGCCACAGCAGAAGCGUUCAAGUCGCGGCCCCUGUCAGAUUCUGGUGAUUCUGCGAAUUCUGCUGU [C24A A52U] | 0.632
GGGGGCCACAGCAGAAGCGUUCUCGUCGCGGCCCCUGUCAGAUUCUGGUGAAUCUGCGAAUUCCGCUGU [A23U U64C] | 0.905
GGGGGCCACAGCAGAAGCGUUCAAGUCGCCGCCCCUGUCAGAUUCUGGUGAAUCUGCGAAUUCUGCUGU [C24A G30C] | 0.159
GGGGGCCACAGCAGAAGCGUUCAAGUCGCGGCCCCUUUCAGAUUCUGGUGAAUCUGCGAAUUCUGCUGU [C24A G37U] | 0.231
GGGGGCCACAGCAGAAGCGUUCUCGUCGCGGCCCCUGUCAGAUUCUGGUGGAUCUGCGAAUUCUGCUGU [A23U A51G] | 0.954
GGGGGCCACAGCAGAAGCGUUCAAGUCGCGGCCCCUGUCAGAUUCUGGUGAAUCUGCGAAUUCUGCUGC [C24A U69C] | 0.972
GGGGGCCACAGCAGAAGCGUUCAAGUCGCGGCCCCUGUCAGAUUCUGGUGUAUCUGCGAAUUCUGCUGU [C24A A51U] | 0.782
